Test results: US20220412989A1, “COMPOSITIONS AND METHODS FOR DETECTING CELLS UNDERGOING FERROPTOSIS USING AN ANTIBODY” (THE TRUSTEES OF COLUMBIA UNIVERSITY IN THE CITY OF NEW YORK, priority 2020, published 2022)
“Also recorded” adds a separate entry of the source.

Tests used:
[1] = system: HCC (Huh-7) mouse xenograft tumor tissue; assay: Staining of hepatocellular carcinoma mouse xenograft tumor tissue sections; parameters: species or system human; conditions: 50 mg/kg IKE once daily IP 2 days
Method: (§1) Tumor tissues were fixed in 4% paraformaldehyde (PFA) for 24 h at 4° C. followed by washing with PBS three times. The tissues were perfused in 30% sucrose for 24 h at 4° C. for cryo-protection. The samples were embedded in OCT cryostat sectioning medium, and then moved directly into a cryostat. After equilibration of temperature, frozen tumor tissues were cut into 5 μm thick sections. Tissue sections were mounted on to poly-L-lysine coated slides by placing the cold sections onto warm slides. Slides were stored at −80° C. until staining. For staining, slides were warmed to room temperature followed by washing with PBS twice. A hydrophobic barrier pen was used to draw a circle on each slide. The slides were permeabilized with PBS with 0.4% Triton X-100 (PBT) twice before non-specific-binding blocking by incubating the sections with 10% goat serum (ThermoFisher 50197Z) for 30 min at room temperature. […] All images were captured on a Zeiss LSM 800 confocal microscope at Plan-Apochromat 63x/1.40 Oil DIC objective with constant laser intensity for all analyzed samples. The intensity above threshold of the fluorescent signal of the bound antibodies was analyzed using NIH ImageJ software (ImageJ, RRID:SCR_003070). Data were expressed as fold change comparing with the vehicle. […]

[2] = target: T1, TfR1 in human brain tissue (Homo sapiens, UniProt P02786); assay: Staining of post-mortem human brain tissues; conditions: Huntington's disease and control
T1 construct: human HD and control brain tissues were fixed in 4% PFA for 24 h; from tissue; host or cells: post-mortem human brain (Huntington's disease and control)
T1 sequence (P02786 whole entry): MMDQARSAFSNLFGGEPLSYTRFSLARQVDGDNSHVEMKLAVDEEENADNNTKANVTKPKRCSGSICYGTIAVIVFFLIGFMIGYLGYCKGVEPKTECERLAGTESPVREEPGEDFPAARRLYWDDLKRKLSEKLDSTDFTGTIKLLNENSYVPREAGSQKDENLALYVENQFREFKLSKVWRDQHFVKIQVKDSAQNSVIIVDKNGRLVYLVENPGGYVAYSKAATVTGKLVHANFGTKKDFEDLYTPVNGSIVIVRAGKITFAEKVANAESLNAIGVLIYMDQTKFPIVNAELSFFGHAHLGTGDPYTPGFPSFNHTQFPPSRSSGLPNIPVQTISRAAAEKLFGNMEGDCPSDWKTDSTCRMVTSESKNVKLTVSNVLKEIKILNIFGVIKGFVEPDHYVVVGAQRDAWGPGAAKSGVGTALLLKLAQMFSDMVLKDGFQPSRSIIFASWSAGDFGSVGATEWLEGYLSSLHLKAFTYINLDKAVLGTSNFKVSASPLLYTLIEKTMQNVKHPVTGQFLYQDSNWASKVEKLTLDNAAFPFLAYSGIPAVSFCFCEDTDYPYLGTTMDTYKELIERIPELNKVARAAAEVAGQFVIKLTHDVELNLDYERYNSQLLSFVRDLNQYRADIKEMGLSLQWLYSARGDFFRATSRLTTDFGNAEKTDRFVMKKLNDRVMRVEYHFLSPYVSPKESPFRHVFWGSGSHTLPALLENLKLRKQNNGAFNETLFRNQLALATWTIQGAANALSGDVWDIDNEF
Method: FIGS. 12A-12B show 3F3 FMA staining in human Huntington's disease brains and mouse tissues. In FIG. 12A, human HD and control brain tissues were fixed in 4% PFA for 24 h, perfused in 30% sucrose for 24 h, and stained with DAPI (nuclei, blue) and 3F3 FMA (red). The expression level of TfR1 is low. There was no difference between HD and control groups. In FIG. 12B, mouse liver tissues and mouse GBM tissues were fixed and stained with DAPI (nuclei, blue) and 3F3 FMA (red). 3F3 FMA was able to recognize mouse TfR1.
Tumor tissues were fixed in 4% paraformaldehyde (PFA) for 24 h at 4° C. followed by washing with PBS three times. The tissues were perfused in 30% sucrose for 24 h at 4° C. for cryo-protection. The samples were embedded in OCT cryostat sectioning medium, and then moved directly into a cryostat. After equilibration of temperature, frozen tumor tissues were cut into 5 μm thick sections. Tissue sections were mounted on to poly-L-lysine coated slides by placing the cold sections onto warm slides. […] All images were captured on a Zeiss LSM 800 confocal microscope at Plan-Apochromat 63x/1.40 Oil DIC objective with constant laser intensity for all analyzed samples. The intensity above threshold of the fluorescent signal of the bound antibodies was analyzed using NIH ImageJ software (ImageJ, RRID:SCR_003070). Data were expressed as fold change comparing with the vehicle.

[3] = target: T2, transferrin receptor protein 1 (Homo sapiens, UniProt P02786); assay: siRNA knockdown of TfR1 followed by immunofluorescence; assay type: cell-based; conditions: HT-1080 cells, siTfR1 vs siNT
T2 construct: First, we incubated 3F3-FMA with a cell lysate overnight; endogenous in cells; host or cells: HT-1080 (ATCC CRL-7951)
T2 sequence (P02786 whole entry): as above
Method: 10 μM of siRNAs were combined with 250 μl of Opti-MEM serum-free media (Life Technologies 31985-070) in one tube. 6 μl of Lipofectamine RNAiMAX (Thermo Fisher Scientific 13778150) was combined with 250 μl of Opti-Mem media in another tube. They were equilibrated at r.t. for 5 min. Then two tubes were combined, transferred into 6-well plate and incubated at 37° C. for 20 min. 0.25 million HT-1080 cells were then added to 6-well plate and incubated for 48 h. Cells were reseeded in regular media for additional 24 h. Regular IF procedure was then conducted.

[4] = system: B cell lymphoma (SU-DHL-6) mouse xenograft tumor tissue; assay: Staining of B cell lymphoma mouse xenograft tumor tissue sections; parameters: species or system human; conditions: 40 mg/kg IKE once daily IP 14 days
Method: as §1

staining signal in human brain tissue [2]: lack of signal
staining in siTfR1-transfected cells [3]: wasn't any detectable staining
B1: 3F3-FMA: murine monoclonal IgG1 raised against ferroptotic membrane fractions; antigen is human transferrin receptor protein 1 (TfR1) (antibody, V domains shown)
VH: EVLLQQSGTELVRPGALVKLSCKASGFNIQDLYIHWVKQRPEQGLEWIGWIDPETDNTIYDPKFQGKASITADTSSNTAYLQLSSLTSEDTAMYYCSTGLLQWYFDVWGAGTAVTVSS
VL: DIVMTQSPSSLAMSIGQKVTMRCKSSQSLLNSYNQKNCLAWYQQKPGQSPKLLLYFVSTRESGVPDRFIGSGSGTDFTLTISSVQAEDLADYFCQQHYSTPLTFGAGTKLELK
staining intensity, IKE-treated vs vehicle samples [1]: increased intensities; also recorded: difference in intensities
staining intensity, IKE-treated vs vehicle samples [4]: did not detect its antigen; also recorded: no difference
